Drawing on patent publication US20190240316A1 (published 2019), this text covers EC50 and Kd for eight molecules.

The target in assay [1] is FFL_001. Put plainly: ELISA; printed as ng/uL. On the technique in general: An ELISA detects its analyte on a solid surface through an enzyme-linked reagent.
The target in another assay is RPM. In words: ELISA; printed as ng/uL.
The target in assay [2] is FFL_001. In words: SPR. On the technique in general: SPR reads the build-up and loss of mass on a sensor chip optically.

B1: Motavizumab (antibody, V domains shown)
VH: QVTLRESGPALVKPTQTLTLTCTFSGFSLSTAGMSVGWIRQPPGKALEWLADIWWDDKKHYNPSLKDRLTISKDTSKNQVVLKVTNMDPADTATYYCARDMIFNFYFDVWGQGTTVTVSS
VL: DIQMTQSPSTLSASVGDRVTITCSASSRVGYMHWYQQKPGKAPKLLIYDTSKLASGVPSRFSGSGSGTEFTLTISSLQPDDFATYYCFQGSGYPFTFGGGTKVEIK
One may read the EC50 as the concentration giving half of the maximal effect. Read a low EC50 as greater potency. As to B1, the EC50 with FFL_001 [1] was found to be 10.4 µg/mL; with RPM, 16.7 µg/mL.

B2: Palivizumab (antibody, V domains shown)
VH: QVTLRESGPALVKPTQTLTLTCTFSGFSLSTSGMSVGWIRQPPGKALEWLADIWWDDKKDYNPSLKSRLTISKDTSKNQVVLKVTNMDPADTATYYCARSMITNWYFDVWGAGTTVTVSS
VL: DIQMTQSPSTLSASVGDRVTITCKCQLSVGYMHWYQQKPGKAPKLLIYDTSKLASGVPSRFSGSGSGTEFTLTISSLQPDDFATYYCFQGSGYPFTFGGGTKLEIK
For B2, the EC50 turned out to be 49 µg/mL in the assay with FFL_001 [1] and 26.1 µg/mL with RPM.

B3: 3J20 (antibody, V domains shown)
VH: EVQLVESGGGLVQPGGSLRLSCAASGFTFSSFTMNWVRQAPGKGLQWVSTISGSGGLTYYADSVKGRFTISRDNSKNTLSLQMNSLRAEDTAVYYCARDLEFTVTSYGGYYFEYWGQGTLVTVSS
VL: not shown
B3: the figures for the half-maximal effective concentration (EC50) with FFL_001 [1] and with RPM were 11.1 µg/mL and 12.7 µg/mL, respectively.

B4: 3J20 (Fab, V domains shown)
VH: EVQLVESGGGLVQPGGSLRLSCAASGFTFSSFTMNWVRQAPGKGLQWVSTISGSGGLTYYADSVKGRFTISRDNSKNTLSLQMNSLRAEDTAVYYCARDLEFTVTSYGGYYFEYWGQGTLVTVSS
VL: not shown
What is called Kd is the constant that tells how readily two partners part at equilibrium. The low end stands for a tighter complex, the high end for a looser complex. Take B4: in the assay with FFL_001 [2], the affinity, expressed as Kd, was 1.05 nM.

B5: 13A8 (antibody, V domains shown)
VH: QVQLVESGGGVVQPGKSLRLSCAASGYIFSSYDMHWVRQAPGKGLEWVAVISFDGTTQHYADSVRGRFTVSRDNSQNTVFLQMNSLRPEDTAVYYCVKEYVIVSTFFDYWGQGTLVTVSS
VL: DIVMTQSPSSLSASVGDRVTITCRASQGIRNALGWYQHKPGKAPKVLIYAASRLQSGVPSRFSGSGSGTDFTLTISSLQPEDFATYYCLQDFNYPWTFGHGTKVEIK
Regarding B5, the EC50 in the assay with FFL_001 [1] was 17.9 µg/mL; with RPM, 14.8 µg/mL.

B6: 13A8 (Fab, V domains shown)
VH: QVQLVESGGGVVQPGKSLRLSCAASGYIFSSYDMHWVRQAPGKGLEWVAVISFDGTTQHYADSVRGRFTVSRDNSQNTVFLQMNSLRPEDTAVYYCVKEYVIVSTFFDYWGQGTLVTVSS
VL: DIVMTQSPSSLSASVGDRVTITCRASQGIRNALGWYQHKPGKAPKVLIYAASRLQSGVPSRFSGSGSGTDFTLTISSLQPEDFATYYCLQDFNYPWTFGHGTKVEIK
For the molecule B6, the Kd in the assay with FFL_001 [2] was 0.2 nM.

B7: 14N4 (antibody, V domains shown)
VH: QVQLVESGGGLIQPGGSLRLSCAVSGFTVSSKYMTWVRQAPGKGLEWVSVIYGGGSTYYADSVVGRFTISRDNSKNTLYLQMNSLRAEDTAVYYCASRLGVRATTGDLDYWGQGTLVTVSS
VL: QIVMTQSPSTLSASVGDRVTITCRASQSISSWLAWYQQKPGKAPKLLIYDASSLESGVPSRFSGSGSGTEFTLTISSLQPDDFATYYCQQYNTYSWWTFGQGTKVEIK
Take B7: the EC50 in the assay with FFL_001 [1] was 19.3 µg/mL; in the assay with RPM, 7.4 µg/mL.

B8: 14N4 (Fab, V domains shown)
VH: QVQLVESGGGLIQPGGSLRLSCAVSGFTVSSKYMTWVRQAPGKGLEWVSVIYGGGSTYYADSVVGRFTISRDNSKNTLYLQMNSLRAEDTAVYYCASRLGVRATTGDLDYWGQGTLVTVSS
VL: QIVMTQSPSTLSASVGDRVTITCRASQSISSWLAWYQQKPGKAPKLLIYDASSLESGVPSRFSGSGSGTEFTLTISSLQPDDFATYYCQQYNTYSWWTFGQGTKVEIK
Regarding B8, the Kd with FFL_001 [2] is 1.37 nM.
